“Also recorded” adds a separate entry of the source. Read-outs that look alike come from different tables or passages of the source.
Assays:
[1] = molecular target: FKBP12 x4 scaffold (plasmid pBP0722, pSH1-Fpk-Fpk′.LS.Fpk″.Fpk′′′.LS.HA) (Homo sapiens (Human)) (UniProt P62942); assay: cell-based or functional assay
293 cells [2] = assay: SEAP assay: FRBl2-tagged CAR plus iCaspase-9, two-tiered apoptosis; format: cell-based, human; settings: FRB-tagged CAR and FKBP-tagged Caspase-9, overnight
Description: FIGS. 6A and 6B provide the results of an assay of two-tiered activation of apoptosis.
As a proof of principal, two tandem FRBl domains were fused to either a 1st generation Her2-CAR or to a 1st generation CD19-CAR co-expressing inducible Caspase-9. 293 cells were transiently transfected with a constitutive reporter plasmid, SRα-SEAP, along with normalized levels of expression plasmids encoding Her2-CAR-FRBl2, iCaspase-9, Her2-CAR-FRBl2+iCasp9, iC9-CAR(19).FRBl2 (coexpressing both CD19-CAR-FRBl2 and iCaspase9), or control vector. […] After overnight incubation with drugs, SEAP activity was determined. […] This dose-dependent decrease required the presence of both the FRB-tagged CAR and the FKBP-tagged Caspase-9. […] Moreover, on- or off-target-mediated CAR clustering should increase the sensitivity of killing primarily at the site of scFv engagement.

293 cells [3] = tested on: 293 cells
Experimental: FIG. 12B: Cultures of HEK-293 cells were transfected (via Genejuice, Novagen) with the constitutive SRα-SEAP reporter plasmid (pBP0046, 1 μg), a fusion of human FKBP12 with human Caspase-9 (pBP0044, 2 μg) and FRB-encoding expression constructs, containing four copies of FRBL (pBP0725, 2 μg) or control vectors encoding zero or one copy of FRBL. […] FIG. 12C: Reporter assays were performed as in (B), but FRB-scaffolds were expressed from constructs encoding iterated FRBL domains with an amino-terminal myristoylation-targeting sequence and two (pBP0465) or four copies (pBP0721) of the FRBL domain.
A subset of constructs also contained the myristoylation-targeting domain from v-Src for membrane localization of the FRB-scaffold (FIG. 12A). 293 cells were transfected with the SRα-SEAP reporter plasmid along with FKBP12-ΔCaspase-9 (iCaspase-9/CaspaCIDe), plus 1 of several FRB-based, non-myristoylated scaffold proteins containing 0, 1, or 4 tandem copies of FRBL.

293 cells [4] = tested on: 293 cells; remark: listed apart in the source
Description: To determine if the polarity of heterodimerization and Caspase-9 assembly could be reversed, one to four 1 to 4 tandem copies of FKBP12 were subcloned into expression vector, pSH1, as above. […] As above, 293 cells were transfected with the SRα-SEAP reporter plasmid along with FRBL-ΔCaspase-9, plus a non-myristoylated scaffold protein containing 1 or 4 tandem copies of FKBP12.

[5] = molecular target: wt FRB (K2095 T2098 W2101) (Homo sapiens, UniProt P42345+P62942); settings: cited from earlier work
293 cells [6] = assay: SEAP assay: iMC (tandem FKBP) plus FRBL2-Caspase-9; format: cell-based, human; settings: tandem FKBPs (iMC) present
Experimental: FIGS. 16A and 16B are line graphs showing that tandem FKBP scaffold mediates FRBL2. Caspase activation in the presence of rapalogs. FIG. 16A. HEK-293 cells were transfected with 1 μg each of SRα-SEAP reporter plasmid, Δmyr.iMC.2A-anti-CD19.CAR.CD3 (pBP0608), and FRBL2. Caspase-9 (pBP0467). […] After ON incubation, cell supernatants were assayed for SEAP activity, as previously described. FIG. 16B. Similar to the experiment described in (FIG. 16A), except that cells were transfected with a membrane-localized (myristoylated) iMC.2A-CD19.CAR.CD3ζ (pBP0609), instead of non-myristoylated Amyr.iMC.2A-CD19.CAR.CD3ζ (pBP0608).
In a second test for rapalog-mediated scaffold-based activation of Caspase-9, 293 cells were transiently transfected with SRα-SEAP reporter plasmid, plus myristoylated or non-myristoylated inducible iMC co-expressed with 1st generation anti-CD19 CAR, plus FRBL2-fused Caspase-9 (plasmid pBP0467) (FIG. 16). […] Thus, rapamcyin and analogs can activate Caspase-9 via a molecular scaffold comprised of FRB or FKBP12 domains.

293T cells = assay: SeAP reporter assay: FRBL-Caspase9 plus FKBPv12-Caspase9 heterodimerization; format: cell-based, human; settings: FRBL-Caspase9 plus FKBPv12-Caspase9
Experimental: HEK 293T cells (5×10^5) were seeded on a 100-mm tissue culture dish in 10 mL DMEM4500, supplemented with glutamine, penicillin/streptomycin and 10% fetal calf serum. After 16-30 hours incubation, cells were transfected using Novagen's GeneJuice® protocol. Briefly, for each transfection, 0.5 mL OptiMEM was pipeted into a 1.5-mL microcentrifuge tube and 15 μL GeneJuice reagent added followed by 5 sec. vortexing. Samples were rested 5 minutes to settle the GeneJuice suspension. DNA (5 μg total) was added to each tube and mixed by pipetting up and down four times. Samples were allowed to rest for 5 minutes for GeneJuice-DNA complex formation and the suspension added dropwise to one dish of 293T cells. A typical transfection contains 1 μg SRα-SEAP (pBP0046) (3), 2 μg FRB-Caspase-9 (pBP0463) and 2 μg FKBPv12-Caspase-9 (pBP0044) (7).
24 hours following transfection (4.1), 293T cells were split to 96-well plates and incubated with dilutions of dimerizing drugs. Briefly, 100 μL media was added to each well of a 96-well flat-bottom plate. Drugs were diluted in tubes to a concentration 4× the top concentration in the gradient to be place on the plate. […] 100 μL from each drug-containing well was then transferred to the adjacent well and the cycle repeated 10 times to produce a serial two-fold step gradient. The last wells were untreated and serve as a control for basal reporter activity. […]
24 hours after drug stimulation, 96-well plates were wrapped to prevent evaporation and incubated at 65®C for 2 hours to inactivate endogenous and serum phosphatases while the heat-stable SeAP reporter remains (1, 4, 12). […] Phosphatase activity was measured by fluorescence with excitation at 355 nm and emission at 460 nm. […]
FIG. 37—Drug induced programmed cell death by homodimerization or heterodimerization of tagged caspase 9. […] Reporter activity is expressed as a percentage of the average of 8 control wells containing no drug. […]
FIG. 38—Rapalog-induced cell death switch. […] Reporter activity is expressed as a percentage of the average of 8 wells containing no drug. […]

[7] = molecular target: CD19-CAR-FRBl2 (1st generation CD19-CAR with two tandem FRBl domains, co-expressed with iCaspase-9 from iC9-CAR(19).FRBl2); assay: cell-based or functional assay
[8] = molecular target: FRBL x4 scaffold, not myristoylated (plasmid pBP0725, pSH1-FRBI.FRBI′.LS.FRBI″.FRBI′′′); assay: cell-based or functional assay
FRBL x4 scaffold, not myristoylated (plasmid pBP0725, pSH1-FRBI.FRBI′.LS.FRBI″.FRBI′′′), sequence (chain, as listed by the source limits assumed): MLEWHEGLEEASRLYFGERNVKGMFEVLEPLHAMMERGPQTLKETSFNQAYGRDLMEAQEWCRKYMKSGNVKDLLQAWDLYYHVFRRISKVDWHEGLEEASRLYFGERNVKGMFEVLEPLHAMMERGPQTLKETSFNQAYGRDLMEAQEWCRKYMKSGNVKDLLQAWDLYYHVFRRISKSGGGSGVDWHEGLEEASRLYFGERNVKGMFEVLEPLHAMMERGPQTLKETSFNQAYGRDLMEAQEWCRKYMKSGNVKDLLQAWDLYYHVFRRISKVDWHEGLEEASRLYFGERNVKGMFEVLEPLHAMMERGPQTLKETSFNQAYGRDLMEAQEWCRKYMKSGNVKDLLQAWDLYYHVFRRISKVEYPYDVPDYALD

[9] = molecular target: Her2-CAR-FRBl2 (1st generation Her2-CAR with two tandem FRBl domains at its carboxy terminus); assay: cell-based or functional assay
HEK293T/16 cells = assay: SEAP-based surrogate killing assay of iCasp9 mutants; format: cell-based, human
Experimental: Early passage HEK293T/16 cells (ATCC, Manassas, Va.) were maintained in IMDM, GlutaMAX™ (Life Technologies, Carlsbad, Calif.) supplemented with 10% FBS, 100 U/mL penicillin, and 100 […] until transfection in a humidified, 37° C., 5% CO2/95% air atmosphere. Cells in logarithmic-phase growth were transiently transfected with 800 ng to 2 μg of expression plasmid encoding iCasp9 mutants and 500 ng of an expression plasmid encoding SRα promoter driven SEAP per million cells in 15-mL conical tubes. […] GeneJammer® Transfection Reagent at a ratio of 3 μl per ug of plasmid DNA was used to transiently transfect HEK293T/16 cells in the absence of antibiotics. 100 μl or 2 mL of the transfection mixture was added to each well in 96-well or 6-well plate, respectively.
Briefly, after 65° C. heat denaturation for 45 minutes to reduce background caused by endogenous (and serum-derived) alkaline phosphatases that are sensitive to heat, 5 μl of supernatants was added to 95 μl of PBS and added to 100 μl of substrate buffer, containing 1 μl of 100 mM 4-methylumbelliferyl phosphate (4-MUP; Sigma, St. Louis, Mo.) re-suspended in 2 M diethanolamine. Hydrolysis of 4-MUP by SEAP produces a fluorescent […] with excitation/emission (355/460 nm), which can be easily measured. Assays were performed in black opaque 96-well plates to minimize fluorescence leakage between wells. […] of the mixture was seeded onto each well of a 96-well plate. […] For the assay, 4-methylumbelliferyl phosphate substrate was hydrolyzed by SEAP to 4-methylumbelliferon, a metabolite that can be excited with 364 nm and detected with an emission filter of 448 nm. Since SEAP is used as a marker for cell viability, reduced SEAP reading corresponds with increased iCaspase-9 activities.

PG13 = format: cell-based
Primary T cells = assay: AP1903-dependent cytotoxicity in primary T cells transduced with iCasp9 variants (CD3+CD19+ flow cytometry); format: cell-based, human
Experimental: The effects of various caspase polypeptides at mostly single copy in primary T cells was assayed. This may reflect more accurately how these suicide genes will be used therapeutically.
Primary T cells from healthy donors (n=6) were transduced with retrovirus encoding mutant or wild-type iCasp9 or iCasp9-D330A, and the ΔCD19 cell surface marker. Following transduction, iCasp9-transduced T cells were purified using CD19-microbeads and a magnetic column.

**Q.** With “FRBL-ΔCaspase-9 fusion protein (plasmid pBP0463, pSH1-FRBL.dCaspase9.T2A)” as the molecule, how does the IC50 of rapamycin or C7-isopropoxy-rapamycin for diminution of constitutive SRα-SEAP reporter activity (cell death) in transfected 293 cells [1] read?
**A.** 3 nM

**Q.** With `CO[C@H]1C[C@@H]2CC[C@@H](C)[C@@](O)(O2)C(=O)C(=O)N2CCCC[C@H]2C(=O)O[C@H]([C@H](C)C[C@@H]2CC[C@@H](O)[C@H](OC)C2)CC(=O)[C@H](C)/C=C(\C)[C@@H](O)[C@@H](OC)C(=O)[C@H](C)C[C@H](C)/C=C/C=C/C=C/1C` [rapamycin] as the molecule, how does the “decrease of SEAP activity” value (293 cells [2]) read?
**A.** ~50%

**Q.** And the IC50 (293 cells [3])?
**A.** ~3 nM

**Q.** And the IC50 (293 cells [4])?
**A.** ~3 nM

**Q.** With “S-Butanesulfonamidorap [S-Butanesulfonamidorap (AP23050)]” as the molecule, how does the EC50 [5] read?
**A.** ~2.7 nM

**Q.** For `COC1CC(CC(C)C2CC(=O)C(C)C=C(C)C(O)C(OC)C(=O)C(C)CC(C)C=CC=CC=C(C)C(OC(C)C)CC3CCC(C)C(O)(O3)C(=O)C(=O)N3CCCCC3C(=O)O2)CCC1O` (centres unmarked) [C7-isopropoxy-rapamycin, C7-isopropoxyrapamycin], which “activation of FRBL2-Caspase-9” value (293 cells [6]) is on record?
**A.** activated

**Q.** What about the “cell death (loss of SeAP reporter)” value (293T cells) of the same molecule?
**A.** dose-dependent high efficacy cell death switch

**Q.** With “FKBP12v36-ΔCaspase-9 fusion protein (iCaspase-9; plasmid pBP0044, pSH1-iCaspase9wt)” as the molecule, how does the SRα-SEAP reporter activity after overnight rapamycin in transfected 293 cells [7] read?
**A.** 50 % decrease

**Q.** What about the IC50 of rapamycin or C7-isopropoxy-rapamycin for diminution of constitutive SRα-SEAP reporter activity (cell death) in transfected 293 cells [8] of the same molecule?
**A.** 3 nM

**Q.** What about the SRα-SEAP reporter activity after overnight rapamycin in transfected 293 cells [9] of the same molecule?
**A.** 50 % decrease

B1: N405Q: chimeric modified Caspase-9 polypeptide, SEQ ID NO: 26 (protein)
chain: GFGDVGALESLRGNADLAYILSMEPCGHCLIINNVNFCRESGLRTRTGSNIDCEKLRRRFSSLHFMVEVKGDLTAKKMVLALLELARQDHGALDCCVVVILSHGCQASHLQFPGAVYGTDGCPVSVEKIVNIFNGTSCPSLGGKPKLFFIQACGGEQKDHGFEVASTSPEDESPGSNPEPDATPFQEGLRTFDQLDAISSLPTPSDIFVSYSTFPGFVSWRDPKSGSWYVETLDDIFEQWAHSEDLQSLLLRVANAVSVKGIYKQMPGCFQFLRKKLFFKTS
**Q.** Which “relative SEAP activity Units (basal, without AP1903)” value (HEK293T/16 cells; 1 μg iCasp9 per million cells) does the source give for B1 here?
**A.** 179081

**Q.** And the “relative SEAP activity Units (basal, without AP1903)” value (HEK293T/16 cells; 2 μg iCasp9 per million cells)?
**A.** 175529

**Q.** What about the “effect on basal / catalytic activity” value (HEK293T/16 cells; in words, versus wild type) of the same molecule?
**A.** lowered basal activity; also recorded: lower basal activity than D330A

**Q.** What about the “CD19 mean fluorescence intensity (MFI)” value (PG13; PG13 cross-transduced five times) of the same molecule?
**A.** enhanced CD19 mean fluorescence intensity

**Q.** What about the viral titers (PG13; upon HAT media treatment, HT1080 cells) of the same molecule?
**A.** higher viral titers

**Q.** And the “sensitivity to AP1903 / killing of target cells” value (Primary T cells)?
**A.** less sensitive to AP1903 and cannot kill target cells as efficiently within 24 hours

**Q.** And the “killing of target T cells” value (Primary T cells; AP1903 at Day 0 and day 4, within 10 days)?
**A.** can kill target T cells indistinguishable from wild type Caspase-9 polypeptide or D330A within 10 days

Source: patent US20220152100A1, “METHODS FOR CONTROLLED ACTIVATION OR ELIMINATION OF THERAPEUTIC CELLS” (Bellicum Pharmaceuticals, Inc., priority 2014, published 2022)
